According to patent US20080227848:

Key:
2-5A-d-R peptide = target: T1, 2-5A-d-R peptide
T1 chain: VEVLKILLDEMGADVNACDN

[1] = target: T2, CAD, HIF C-terminal transactivation domain standard peptide
T2 chain: DESGLPQLTSYDCEVNAPI

FEM-1 21 mer peptide = target: T3, FEM-1 21 mer peptide
T3 chain: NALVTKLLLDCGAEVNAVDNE

FGIF peptide = target: T4, FGIF peptide
T4 chain: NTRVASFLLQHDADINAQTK

GABPbeta peptide = target: T5, GABPbeta peptide
T5 chain: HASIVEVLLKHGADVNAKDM

[2] = target: T6, GST HIF-1α 786-826, Q16665; conditions: scale: % activity relative to GST HIF-1α 786-826
T6 chain: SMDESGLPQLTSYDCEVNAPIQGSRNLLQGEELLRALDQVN

[3] = target: GST p105 ARD N to A mutant; conditions: scale: % activity relative to GST HIF-1α 786-826
GST p105 ARD = target: T7, GST p105 ARD; conditions: scale: % activity relative to GST HIF-1α 786-826
T7 chain: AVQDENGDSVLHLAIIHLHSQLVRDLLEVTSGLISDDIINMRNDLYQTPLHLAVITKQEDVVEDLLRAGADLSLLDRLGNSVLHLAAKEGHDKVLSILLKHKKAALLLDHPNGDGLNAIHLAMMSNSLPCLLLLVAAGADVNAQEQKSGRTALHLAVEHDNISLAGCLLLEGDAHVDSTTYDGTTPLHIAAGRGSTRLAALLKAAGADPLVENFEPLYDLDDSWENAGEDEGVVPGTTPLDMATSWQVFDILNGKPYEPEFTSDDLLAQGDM

Gankyrin/p28-II peptide = target: T8, Gankyrin/p28-II peptide
T8 chain: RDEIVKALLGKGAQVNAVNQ

IkBa 21 mer peptide = target: T9, IkBa 21 mer peptide
T9 chain: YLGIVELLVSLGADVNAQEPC

[4] = target: T10, IkappaB-alpha, recombinant protein, P25963
T10 chain: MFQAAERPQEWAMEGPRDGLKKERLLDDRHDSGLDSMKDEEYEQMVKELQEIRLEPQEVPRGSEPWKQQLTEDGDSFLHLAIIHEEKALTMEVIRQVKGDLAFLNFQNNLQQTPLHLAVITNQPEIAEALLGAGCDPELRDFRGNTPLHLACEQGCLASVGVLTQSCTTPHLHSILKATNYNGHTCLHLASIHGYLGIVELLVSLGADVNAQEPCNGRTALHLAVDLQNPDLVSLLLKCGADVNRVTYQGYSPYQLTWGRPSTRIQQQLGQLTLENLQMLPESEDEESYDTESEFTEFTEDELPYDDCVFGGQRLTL

M110 peptide = target: T11, M110 peptide
T11 chain: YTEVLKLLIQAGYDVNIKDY

Myotrophin peptide = target: T12, Myotrophin peptide
T12 chain: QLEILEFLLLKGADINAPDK

Tankyrase 1/2 peptide = target: T13, Tankyrase 1/2 peptide
T13 chain: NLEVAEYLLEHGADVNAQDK

p105 21 mer peptide = target: T14, p105 21 mer peptide
T14 chain: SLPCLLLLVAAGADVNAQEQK

[5] = target: T15, p105 ARD (ankyrin repeat domain of p105, amino acid residues 537-809), free form; conditions: scale: % activity relative to GST HIF-1α 786-826
T15 chain: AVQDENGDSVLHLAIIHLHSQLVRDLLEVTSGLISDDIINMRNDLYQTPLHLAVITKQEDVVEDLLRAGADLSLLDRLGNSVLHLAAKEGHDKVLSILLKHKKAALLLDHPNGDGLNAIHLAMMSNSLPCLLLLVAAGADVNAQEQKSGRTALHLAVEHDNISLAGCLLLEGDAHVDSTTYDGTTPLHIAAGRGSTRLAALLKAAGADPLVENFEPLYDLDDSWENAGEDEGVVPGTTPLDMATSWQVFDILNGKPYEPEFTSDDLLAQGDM

p19-INK-4d peptide = target: T16, p19-INK-4d peptide
T16 chain: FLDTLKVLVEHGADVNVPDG

[6] = scale: % activity relative to GST HIF-1α 786-826

B1: factor inhibiting hypoxia-inducible factor (FIH), highly purified recombinant (protein)
chain: MAATAAEAVASGSGEPREEAGALGPAWDESQLRSYSFPTRPIPRLSQSDPRAEELIENEEPVVLTDTNLVYPALKWDLEYLQENIGNGDFSVYSASTHKFLYYDEKKMANFQNFKPRSNREEMKFHEFVEKLQDIQQRGGEERLYLQQTLNDTVGRKIVMDFLGFNWNWINKQQGKRGWGQLTSNLLLIGMEGNVTPAHYDEQQNFFAQIKGYKRCILFPPDQFECLYPYPVHHPCDRQSQVDFDNPDYERFPNFQNVVGYETVVGPGDVLYIPMYWWHHIESLLNGGITITVNFWYKGAPTPKRIEYPLKAHQKVAIMRNIEKMLGEALGNPQEVGPLLNTMIKGRYN
2-5A-d-R peptide
  Activity + FIH (relative to synthetic HIF1alphaCAD) (relative to synthetic HIF1alphaCAD): 27.8
  Hydroxylation of peptide observed by LC-MS analysis: Yes
[1]
  Activity + FIH (relative to synthetic HIF1alphaCAD) (relative to synthetic HIF1alphaCAD): 100
  Hydroxylation of peptide observed by LC-MS analysis: Yes
[1]; [6]
  % activity relative to GST HIF-1α 786-826 (decarboxylation of 2OG): 75
FEM-1 21 mer peptide
  2D-NMR spectra of the peptide after incubation with FIH: consistent with asparaginyl hydroxylation
  direct peptide substrate hydroxylation by LC-MS: both the FEM-1 and IkappaB-alpha peptides were observed to be hydroxylated under standard assay conditions
FEM-1 21 mer peptide; [6]
  % activity relative to GST HIF-1α 786-826 (decarboxylation of 2OG): 89
FGIF peptide
  Activity + FIH (relative to synthetic HIF1alphaCAD) (relative to synthetic HIF1alphaCAD): 168
  Hydroxylation of peptide observed by LC-MS analysis: Yes
GABPbeta peptide
  Activity + FIH (relative to synthetic HIF1alphaCAD) (relative to synthetic HIF1alphaCAD): 107
  Hydroxylation of peptide observed by LC-MS analysis: Yes
[2]
  % activity relative to GST HIF-1α 786-826 (decarboxylation of 2OG): 100
[3]
  % activity relative to GST HIF-1α 786-826 (decarboxylation of 2OG): 12
GST p105 ARD
  % activity relative to GST HIF-1α 786-826 (decarboxylation of 2OG): 129
Gankyrin/p28-II peptide
  Activity + FIH (relative to synthetic HIF1alphaCAD) (relative to synthetic HIF1alphaCAD): 116
  Hydroxylation of peptide observed by LC-MS analysis: Yes
IkBa 21 mer peptide
  direct peptide substrate hydroxylation by LC-MS: both the FEM-1 and IkappaB-alpha peptides were observed to be hydroxylated under standard assay conditions
IkBa 21 mer peptide; [6]
  % activity relative to GST HIF-1α 786-826 (decarboxylation of 2OG): 111
[4]
  MALDI-TOF mass spectrometry of tryptic fragments after incubation with FIH: The results demonstrated hydroxylation of the fragment
[4]; [6]
  % activity relative to GST HIF-1α 786-826 (decarboxylation of 2OG): 144
M110 peptide
  Activity + FIH (relative to synthetic HIF1alphaCAD) (relative to synthetic HIF1alphaCAD): 122
  Hydroxylation of peptide observed by LC-MS analysis: Yes
Myotrophin peptide
  Activity + FIH (relative to synthetic HIF1alphaCAD) (relative to synthetic HIF1alphaCAD): 154
  Hydroxylation of peptide observed by LC-MS analysis: Yes
Tankyrase 1/2 peptide
  Activity + FIH (relative to synthetic HIF1alphaCAD) (relative to synthetic HIF1alphaCAD): 107
  Hydroxylation of peptide observed by LC-MS analysis: Yes
  site of hydroxylation by LC-MS: LC-MS analyses located the site of hydroxylation to the internal asparagine residue in the case of tankyrase
p105 21 mer peptide
  2D-NMR spectra of the peptide after incubation with FIH: consistent with asparaginyl hydroxylation
p105 21 mer peptide; [6]
  % activity relative to GST HIF-1α 786-826 (decarboxylation of 2OG): 100
[5]
  % activity relative to GST HIF-1α 786-826 (decarboxylation of 2OG): 164
p105 ARD L668K mutant
  MALDI ToF mass spectrometry of the tryptic digest after incubation with FIH: following incubation with FIH, a peak at 1,542 Da appears in the spectrum that corresponds to the hydroxylated 1,526 Da peptide i.e. +16 Da
p19-INK-4d peptide
  Activity + FIH (relative to synthetic HIF1alphaCAD) (relative to synthetic HIF1alphaCAD): 124
  Hydroxylation of peptide observed by LC-MS analysis: Yes
